We go through two molecules from PMC5778463.

This series has as its target Influenza A polymerase heterotrimer (PA-PB1-PB2) (Influenza A virus A/little …, UniProt H6QM92;H6QM91;H6QM90 1-713;1-756;1-760). Nature of the series: crystal structure.

For the molecule AAUCUAUAAUAG (ssRNA, 5' m7Gppp cap) [capped 12-mer RNA primer], the binding result is “binds”.

B1: vRNA promoter (5' nt 1-16 / 3' nt 1-18) (structured_RNA)
RNA 1: AGUAGUAACAAGAGGG
RNA 2: UAUACCUCUGCUUCUGCU
modifications: 5' phosphate on strand 1
B1: the binding result is “binds”.
